Article PMC12051234, “NrdR in Streptococcus and Listeria spp.: DNA Helix Phase Dependence of the Bacterial Ribonucleotide Reductase Repressor” (Molecular Microbiology, 2024)
Where “and” joins values, the source holds several entries; their conditions need not be identical. Equal entries are not always repeated.

Tests used:
[1] = target: the molecule itself; assay: SEC; SpnNrdR 50 uM incubated with 0.5 mM ATP, 0.5 mM dATP and 2.5 mM MgCl; ATP and dATP 0.1 mM each in the buffer; Superdex S200 Increase, 4 C; 25 mM HEPES pH 7.2, 2.5 mM MgCl2, 15% glycerol, 250 mM NaCl, 0.1 mM TCEP
[2] = target: the molecule itself; assay: SEC; LmoNrdR 50 uM, no nucleotides in protein or buffer (apo); Superdex S200 Increase, 4 C; 25 mM Bis-Tris Propane pH 6.5, 5% glycerol, 5 mM MgCl2, 100 mM KCl, 1 mM DTT; size from a calibration curve of globular standards
[3] = target: the molecule itself; assay: SEC; LmoNrdR 50 uM incubated with 1 mM ATP and 5 mM MgCl; 0.2 mM ATP in the buffer; Superdex S200 Increase, 4 C; 25 mM Bis-Tris Propane pH 6.5, 5% glycerol, 5 mM MgCl2, 100 mM KCl, 1 mM DTT
[4] = target: the molecule itself; assay: SEC; LmoNrdR 50 uM incubated with dATP + ATP and 5 mM MgCl; 0.1 mM of each nucleotide in the buffer; Superdex S200 Increase, 4 C; 25 mM Bis-Tris Propane pH 6.5, 5% glycerol, 5 mM MgCl2, 100 mM KCl, 1 mM DTT

Protein | stoichiometry N [1] | stoichiometry N [2] | stoichiometry N [3] | stoichiometry N [4]
Streptococcus pneumoniae NrdR (natural protein, Streptococcus pneumoniae TIGR4, UniProt P67318 1-157, looked up, NrdR, transcriptional repressor of ribonucleotide reductase genes, S. pneumoniae TIGR4; the nrdR gene (SP_1713, AAK75791) cloned in pET30a(+) between NdeI and XhoI; molecular mass including the hexa-histidine tag 19.4 kDa; Oligomeric state depends on the nucleotides added (none, ATP, dATP + ATP); also called SpnNrdR; source: E. coli BL21(DE3), purified (HisTrap FF Ni-Sepharose, desalting); not …) MRCPKCGATKSSVIDSRQAEEGNTIRRRRECDECQHRFTTYERVEERTLVVVKKDGTREQFSRDKIFNGIIRSAQKRPVSSDEINMVVNRIEQKLRGRNENEIQSEDIGSLVMEELAELDEITYVRFASVYRSFKDVSELESLLQQITQSSKKKKER | 4 | – | – | –
Listeria monocytogenes NrdR (natural protein, UniProt B8DHI6 1-154, looked up, NrdR, transcriptional repressor of ribonucleotide reductase genes, L. monocytogenes serotype 1/2a str; S10403S; molecular mass including the hexa-histidine tag 19 kDa; Oligomeric state depends on the nucleotides added; also called LmoNrdR; L. monocytogenes NrdR; source: E. coli BL21(DE3), purified (HisTrap FF Ni-Sepharose, desalting); not shown: His6, C-terminal, kept) MRCPTCQYNGTRVVDSRPADDGNSIRRRRECEKCGFRFTTFEKVEESPLIVVKKDGAREEFAREKVRRGLIRACEKRPVSAEQIEEIVNEVERELRNIGDSEIASDLIGEKVMNKLANLDEVAYVRFASVYRQFKDISVFVEELKDLMEKNKDR | – | 2 and 4 | 8 | 4
